Data from patent US20220354880A1, “COMBINATION TREATMENT FOR CANCER” (AstraZeneca AB, priority 2019, published 2022).

Tests used:
MC-38 OVA = test: Low dose cisplatin anti-tumor activity in MC-38 OVA mice; format: in vivo; settings: cisplatin 5 mg/kg (approximately 60 mg/m^2 human dose)
Method: FIGS. 1A-1C relate to Example 1.
A low dose treatment of cisplatin, 5 mg/kg (equivalent to approximately 60 mg/m^2 human dose) was tested for anti-tumor activity in MC-38 OVA mice.

xenograft model = settings: via a T-cell dependent mechanism; cited from earlier work
human T-cell = settings: in vitro; cited from earlier work

Molecule | anti-tumor activity (tumor growth inhibition) (MC-38 OVA) | tumor growth in a xenograft model (xenograft model) | PD-L1-mediated suppression of human T-cell activation (human T-cell)
N.N.[Cl][Pt][Cl] [cisplatin] | produces most tumor growth inhibition |  | 
MEDI4736: anti-PD-L1 antibody selective for a PD-L1 polypeptide; SEQ ID NOs: 3-10 (antibody, V domains shown, MEDI4736 VH; Sequence 72 from PCT/US2010/058007; MEDI4736 VL; Sequence 77 from PCT/US2010/058007) VH: EVQLVESGGGLVQPGGSLRLSCAASGFTFSRYWMSWVRQAPGKGLEWVANIKQDGSEKYYVDSVKGRFTISRDNAKNSLYLQMNSLRAEDTAVYYCAREGGWFGELAFDYWGQGTLVTVSS VL: EIVLTQSPGTLSLSPGERATLSCRASQRVSSSYLAWYQQKPGQAPRLLIYDASSRATGIPDRFSGSGSGTDFTLTISRLEPEDFAVYYCQQYGSLPWTFGQGTKVEIK |  | inhibit tumor growth in a xenograft model | can relieve PD-L1-mediated suppression of human T-cell activation in vitro
